Results reported in paper PMC1447668, “Foxp3 Represses Retroviral Transcription by Targeting Both NF-κB and CREB Pathways” (PLoS Pathogens, 2006).

Target: cAMP-responsive element binding protein CREB-1 (UniProt P16220 1-327)
Test: cell-based or functional assay

Chain of cAMP-responsive element binding protein CREB-1 (P16220 whole entry): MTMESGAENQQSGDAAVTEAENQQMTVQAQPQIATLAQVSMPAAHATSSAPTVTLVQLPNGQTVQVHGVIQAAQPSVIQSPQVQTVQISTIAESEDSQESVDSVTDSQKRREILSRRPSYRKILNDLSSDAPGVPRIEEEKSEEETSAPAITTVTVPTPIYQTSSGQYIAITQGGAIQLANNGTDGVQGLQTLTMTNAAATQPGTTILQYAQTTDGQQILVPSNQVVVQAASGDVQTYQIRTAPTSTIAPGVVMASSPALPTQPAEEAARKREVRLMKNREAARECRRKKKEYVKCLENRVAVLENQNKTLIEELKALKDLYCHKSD

B1: human Foxp3 (natural protein, UniProt Q9BZS1 1-431, looked up)
chain: MPNPRPGKPSAPSLALGPSPGASPSWRAAPKASDLLGARGPGGTFQGRDLRGGAHASSSSLNPMPPSQLQLPTLPLVMVAPSGARLGPLPHLQALLQDRPHFMHQLSTVDAHARTPVLQVHPLESPAMISLTPPTTATGVFSLKARPGLPPGINVASLEWVSREPALLCTFPNPSAPRKDSTLSAVPQSSYPLLANGVCKWPGCEKVFEEPEDFLKHCQADHLLDEKGRAQCLLQREMVQSLEQQLVLEKEKLSAMQAHLAGKMALTKASSVASSDKGSCCIVAAGSQGPVVPAWSGPREAPDSLFAVRRHLWGSHGNSTFPEFLHNMDYFKFHNMRPPFTYATLIRWAILEAPEKQRTLNEIYHWFTRMFAFFRNHPATWKNAIRHNLSLHKCFVRVESEKGAVWTVDELEFRKKRSQRPSRCSNPTPGP
For B1, the “basal levels of Gal4-BD-CREB-1 activation of a Gal4 luciferase reporter in HEK 293T cells with Foxp3 overexpressed (Figure 7C)” value was over 2 fold.
